# Measured values from IntAct's records for PubMed 28486698.
# B1: THAP domain-containing protein 1 (Homo sapiens), Q9NVV9 (parent)
# chain: MVQSCSAYGCKNRYDKDKPVSFHKFPLTRPSLCKEWEAAVRRKNFKPTKYSSICSEHFTPDCFKRECNNKLLKENAVPTIFLCTEPHDKKEDLLEPQEQLPPPPLPPPVSQVDAAIGLLMPPLQTPVNLSVFCDHNYTVEDTMHQRKRIHQLEQQVEKLRKKLKTAQQRCRRQERQLEKLKEVVHFQKEKDDVSERGYVILPNDYFEIVEVPA
# Variants of: B1
# Conditions: with hcfc1_human HCFC1, P51610
# hcfc1_human HCFC1, P51610, sequence (P51610 whole entry): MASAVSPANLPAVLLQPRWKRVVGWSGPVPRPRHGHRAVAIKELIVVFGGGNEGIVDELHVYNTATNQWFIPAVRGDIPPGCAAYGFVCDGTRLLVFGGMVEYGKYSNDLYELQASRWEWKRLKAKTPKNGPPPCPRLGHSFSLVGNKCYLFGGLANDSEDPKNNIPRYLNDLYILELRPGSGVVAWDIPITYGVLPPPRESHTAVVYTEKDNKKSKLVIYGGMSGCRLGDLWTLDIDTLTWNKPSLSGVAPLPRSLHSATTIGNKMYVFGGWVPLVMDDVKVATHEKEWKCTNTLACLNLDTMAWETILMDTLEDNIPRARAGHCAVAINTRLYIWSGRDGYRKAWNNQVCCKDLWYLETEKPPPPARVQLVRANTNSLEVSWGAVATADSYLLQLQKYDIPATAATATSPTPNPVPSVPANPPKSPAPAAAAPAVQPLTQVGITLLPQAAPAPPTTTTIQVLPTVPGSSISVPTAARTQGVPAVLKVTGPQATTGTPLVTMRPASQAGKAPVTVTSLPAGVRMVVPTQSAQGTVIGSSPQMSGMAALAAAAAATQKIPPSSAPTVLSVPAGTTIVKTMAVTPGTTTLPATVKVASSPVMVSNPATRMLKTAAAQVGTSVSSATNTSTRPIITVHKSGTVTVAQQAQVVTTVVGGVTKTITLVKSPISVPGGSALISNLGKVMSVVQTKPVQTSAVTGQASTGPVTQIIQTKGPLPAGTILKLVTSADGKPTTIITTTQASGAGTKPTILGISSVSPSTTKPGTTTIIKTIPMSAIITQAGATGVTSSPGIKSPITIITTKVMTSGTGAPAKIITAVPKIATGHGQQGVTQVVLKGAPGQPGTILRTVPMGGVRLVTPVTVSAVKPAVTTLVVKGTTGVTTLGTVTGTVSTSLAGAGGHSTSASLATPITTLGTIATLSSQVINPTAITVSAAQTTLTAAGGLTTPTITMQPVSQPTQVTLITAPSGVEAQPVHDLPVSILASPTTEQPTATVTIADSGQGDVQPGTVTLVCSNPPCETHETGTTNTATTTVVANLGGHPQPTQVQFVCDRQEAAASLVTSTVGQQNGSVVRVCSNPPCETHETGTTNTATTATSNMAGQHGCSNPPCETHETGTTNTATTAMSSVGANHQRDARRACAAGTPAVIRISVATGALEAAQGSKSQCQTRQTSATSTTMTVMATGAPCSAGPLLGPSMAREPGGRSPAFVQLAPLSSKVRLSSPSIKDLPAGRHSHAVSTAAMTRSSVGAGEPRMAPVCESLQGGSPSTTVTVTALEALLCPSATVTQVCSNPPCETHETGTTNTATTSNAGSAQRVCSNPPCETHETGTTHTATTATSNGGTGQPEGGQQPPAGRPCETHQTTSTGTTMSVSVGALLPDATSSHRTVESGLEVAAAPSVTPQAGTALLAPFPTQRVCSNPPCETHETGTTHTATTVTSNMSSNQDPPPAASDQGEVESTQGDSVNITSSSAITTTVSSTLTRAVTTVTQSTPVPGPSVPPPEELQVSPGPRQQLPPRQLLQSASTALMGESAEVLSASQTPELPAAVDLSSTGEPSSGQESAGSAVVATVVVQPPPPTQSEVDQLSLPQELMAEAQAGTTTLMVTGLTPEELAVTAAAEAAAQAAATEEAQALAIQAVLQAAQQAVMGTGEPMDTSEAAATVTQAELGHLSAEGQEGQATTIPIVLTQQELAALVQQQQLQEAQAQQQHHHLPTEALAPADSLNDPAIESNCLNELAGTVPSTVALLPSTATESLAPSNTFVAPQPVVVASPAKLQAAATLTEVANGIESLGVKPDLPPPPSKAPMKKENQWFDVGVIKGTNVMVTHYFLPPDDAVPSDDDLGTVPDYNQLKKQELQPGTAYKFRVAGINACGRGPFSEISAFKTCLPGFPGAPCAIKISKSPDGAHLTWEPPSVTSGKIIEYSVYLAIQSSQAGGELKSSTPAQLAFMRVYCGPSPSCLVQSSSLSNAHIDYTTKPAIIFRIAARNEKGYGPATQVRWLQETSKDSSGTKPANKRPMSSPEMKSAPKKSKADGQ
row,Variant,effect of a mutation on the interaction
1,Y137C,disrupting interaction strength
2,N136S,disrupting interaction strength
3,N136K,disrupting interaction strength

# Variants of: B1
# Conditions: with hcfc1_human HCFC1, P51610
# Remark: another data set of the same source
row,Variant,effect of a mutation on the interaction
1,N136S,decreasing interaction strength
